Source: the supplement of paper PMC10065799, “High-throughput profiling of sequence recognition by tyrosine kinases and SH2 domains using bacterial peptide display” (eLife, 2023)

Legend:
AncSZ = experiment: phosphorylation enrichment, bacterial display (enrichment ratio); higher = better substrate or ligand; peptides without Tyr show the background
EPHB1 = EPHB1 (UniProt P54762); experiment: as above
EPHB2 = EPHB2 (UniProt P29323); experiment: as above
FGFR1 = FGFR1 (UniProt P11362); experiment: as above
FGFR3 = FGFR3 (UniProt P22607); experiment: as above
Fer (mouse) = experiment: as above
Fes = Fes (UniProt P07332); experiment: as above
Fyn = Fyn (UniProt P06241); experiment: as above
Hck = Hck (UniProt P08631); experiment: as above
Jak2 = Jak2 (UniProt O60674); experiment: as above
MERTK = MERTK (UniProt Q12866); experiment: as above
c-Abl (mouse) = experiment: as above
c-Src = experiment: as above
Grb2 SH2 = Grb2 SH2 (UniProt P62993); experiment: SH2 binding enrichment of the phosphorylated peptide, bacterial display (enrichment ratio); higher = better substrate or ligand; peptides without Tyr show the background
SHP2-C SH2 = experiment: as above
c-Src SH2 = experiment: as above
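For SH2 binding enrichment of the phosphorylated peptide, bacterial display in this document: peptide library displayed on the E. coli surface as eCPX fusions, selected cells deep-sequenced, score is each peptide's frequency after selection divided by its frequency in the input.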
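For phosphorylation enrichment, bacterial display in this document: 11-residue human phosphosite peptides and single-mutation variants displayed on the E. coli surface, counted by deep sequencing, each peptide's frequency after selection divided by its frequency in the unselected input library; frequency after pTyr selection over input frequency; kinase dosed for 20-30% of maximal phosphorylation in three min.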

Sequence of FGFR1 (P11362 whole entry, looked up): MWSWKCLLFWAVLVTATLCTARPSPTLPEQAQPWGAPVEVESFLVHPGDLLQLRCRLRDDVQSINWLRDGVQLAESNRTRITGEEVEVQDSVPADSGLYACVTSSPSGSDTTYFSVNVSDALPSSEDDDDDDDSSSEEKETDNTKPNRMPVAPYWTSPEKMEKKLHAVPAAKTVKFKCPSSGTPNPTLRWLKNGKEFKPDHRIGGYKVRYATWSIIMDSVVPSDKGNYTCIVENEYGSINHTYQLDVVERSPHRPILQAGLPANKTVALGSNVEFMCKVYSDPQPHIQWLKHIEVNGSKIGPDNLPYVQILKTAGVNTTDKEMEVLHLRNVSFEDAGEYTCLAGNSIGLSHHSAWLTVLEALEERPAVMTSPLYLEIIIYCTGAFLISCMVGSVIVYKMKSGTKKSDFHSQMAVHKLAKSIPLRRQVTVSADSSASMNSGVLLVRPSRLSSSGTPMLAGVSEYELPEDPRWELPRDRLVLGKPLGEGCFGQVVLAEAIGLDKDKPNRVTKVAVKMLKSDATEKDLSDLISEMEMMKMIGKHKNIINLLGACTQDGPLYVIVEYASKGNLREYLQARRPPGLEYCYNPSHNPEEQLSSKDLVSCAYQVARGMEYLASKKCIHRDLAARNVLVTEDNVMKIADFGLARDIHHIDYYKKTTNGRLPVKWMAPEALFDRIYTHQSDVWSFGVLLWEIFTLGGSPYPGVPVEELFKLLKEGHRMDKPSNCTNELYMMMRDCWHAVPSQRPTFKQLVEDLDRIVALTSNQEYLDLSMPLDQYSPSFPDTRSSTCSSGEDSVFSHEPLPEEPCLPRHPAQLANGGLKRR
Sequence of FGFR3 (P22607 whole entry, looked up): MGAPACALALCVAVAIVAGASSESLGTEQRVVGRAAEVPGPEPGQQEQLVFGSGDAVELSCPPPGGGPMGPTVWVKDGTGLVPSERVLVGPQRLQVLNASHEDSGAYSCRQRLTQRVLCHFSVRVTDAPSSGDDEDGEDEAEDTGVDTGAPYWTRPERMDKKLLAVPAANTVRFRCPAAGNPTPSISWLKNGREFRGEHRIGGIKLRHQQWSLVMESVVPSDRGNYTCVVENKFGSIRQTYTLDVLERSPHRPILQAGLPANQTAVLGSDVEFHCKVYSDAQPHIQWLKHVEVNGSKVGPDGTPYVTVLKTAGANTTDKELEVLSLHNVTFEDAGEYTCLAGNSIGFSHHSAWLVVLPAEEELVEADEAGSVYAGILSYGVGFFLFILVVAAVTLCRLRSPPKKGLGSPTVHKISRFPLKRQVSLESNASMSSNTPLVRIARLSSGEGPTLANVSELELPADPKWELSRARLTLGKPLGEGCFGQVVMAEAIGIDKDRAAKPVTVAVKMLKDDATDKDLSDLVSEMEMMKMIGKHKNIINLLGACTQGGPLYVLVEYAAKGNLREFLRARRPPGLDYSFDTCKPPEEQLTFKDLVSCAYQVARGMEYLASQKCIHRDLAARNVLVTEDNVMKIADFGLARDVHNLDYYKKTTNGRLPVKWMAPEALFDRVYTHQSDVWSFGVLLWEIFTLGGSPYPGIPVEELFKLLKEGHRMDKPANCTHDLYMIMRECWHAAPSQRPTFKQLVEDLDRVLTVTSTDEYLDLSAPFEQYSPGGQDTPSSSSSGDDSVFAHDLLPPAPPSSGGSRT
Sequence of Fyn (P06241 whole entry, looked up): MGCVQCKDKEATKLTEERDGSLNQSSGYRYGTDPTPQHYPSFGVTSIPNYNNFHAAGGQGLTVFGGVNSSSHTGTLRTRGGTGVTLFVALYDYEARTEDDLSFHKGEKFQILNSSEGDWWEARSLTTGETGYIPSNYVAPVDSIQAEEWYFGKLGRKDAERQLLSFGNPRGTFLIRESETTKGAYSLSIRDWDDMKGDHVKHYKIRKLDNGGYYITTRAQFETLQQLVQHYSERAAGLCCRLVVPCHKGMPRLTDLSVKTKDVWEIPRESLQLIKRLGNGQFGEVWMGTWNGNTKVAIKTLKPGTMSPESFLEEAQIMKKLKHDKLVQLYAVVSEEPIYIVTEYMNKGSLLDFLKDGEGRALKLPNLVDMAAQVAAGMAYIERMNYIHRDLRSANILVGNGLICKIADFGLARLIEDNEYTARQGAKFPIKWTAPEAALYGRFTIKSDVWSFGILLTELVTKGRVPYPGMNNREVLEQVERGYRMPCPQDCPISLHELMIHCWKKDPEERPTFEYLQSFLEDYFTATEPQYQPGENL
Sequence of Fes (P07332 whole entry, looked up): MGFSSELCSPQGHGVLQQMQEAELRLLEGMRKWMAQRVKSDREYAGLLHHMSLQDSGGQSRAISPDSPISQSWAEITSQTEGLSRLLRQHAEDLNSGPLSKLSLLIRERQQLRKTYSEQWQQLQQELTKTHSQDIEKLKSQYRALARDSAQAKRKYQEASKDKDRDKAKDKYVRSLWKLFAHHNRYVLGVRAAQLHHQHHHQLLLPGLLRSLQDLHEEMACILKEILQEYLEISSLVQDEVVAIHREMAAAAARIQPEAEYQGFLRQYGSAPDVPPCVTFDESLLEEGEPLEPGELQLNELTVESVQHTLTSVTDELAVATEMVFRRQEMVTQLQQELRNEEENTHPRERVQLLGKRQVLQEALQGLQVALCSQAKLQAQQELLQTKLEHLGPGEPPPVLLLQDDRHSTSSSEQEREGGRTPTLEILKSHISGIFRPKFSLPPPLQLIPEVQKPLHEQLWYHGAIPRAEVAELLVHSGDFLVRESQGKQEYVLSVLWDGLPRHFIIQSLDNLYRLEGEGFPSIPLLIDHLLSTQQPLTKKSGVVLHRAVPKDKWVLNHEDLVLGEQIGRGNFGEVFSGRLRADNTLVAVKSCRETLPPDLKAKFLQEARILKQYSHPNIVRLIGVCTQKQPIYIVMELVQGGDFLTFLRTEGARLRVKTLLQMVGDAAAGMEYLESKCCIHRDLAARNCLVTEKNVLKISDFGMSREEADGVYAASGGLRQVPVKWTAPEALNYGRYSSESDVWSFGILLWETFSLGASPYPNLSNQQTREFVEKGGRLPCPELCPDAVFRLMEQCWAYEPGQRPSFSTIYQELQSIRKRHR
Sequence of EPHB2 (P29323 whole entry, looked up): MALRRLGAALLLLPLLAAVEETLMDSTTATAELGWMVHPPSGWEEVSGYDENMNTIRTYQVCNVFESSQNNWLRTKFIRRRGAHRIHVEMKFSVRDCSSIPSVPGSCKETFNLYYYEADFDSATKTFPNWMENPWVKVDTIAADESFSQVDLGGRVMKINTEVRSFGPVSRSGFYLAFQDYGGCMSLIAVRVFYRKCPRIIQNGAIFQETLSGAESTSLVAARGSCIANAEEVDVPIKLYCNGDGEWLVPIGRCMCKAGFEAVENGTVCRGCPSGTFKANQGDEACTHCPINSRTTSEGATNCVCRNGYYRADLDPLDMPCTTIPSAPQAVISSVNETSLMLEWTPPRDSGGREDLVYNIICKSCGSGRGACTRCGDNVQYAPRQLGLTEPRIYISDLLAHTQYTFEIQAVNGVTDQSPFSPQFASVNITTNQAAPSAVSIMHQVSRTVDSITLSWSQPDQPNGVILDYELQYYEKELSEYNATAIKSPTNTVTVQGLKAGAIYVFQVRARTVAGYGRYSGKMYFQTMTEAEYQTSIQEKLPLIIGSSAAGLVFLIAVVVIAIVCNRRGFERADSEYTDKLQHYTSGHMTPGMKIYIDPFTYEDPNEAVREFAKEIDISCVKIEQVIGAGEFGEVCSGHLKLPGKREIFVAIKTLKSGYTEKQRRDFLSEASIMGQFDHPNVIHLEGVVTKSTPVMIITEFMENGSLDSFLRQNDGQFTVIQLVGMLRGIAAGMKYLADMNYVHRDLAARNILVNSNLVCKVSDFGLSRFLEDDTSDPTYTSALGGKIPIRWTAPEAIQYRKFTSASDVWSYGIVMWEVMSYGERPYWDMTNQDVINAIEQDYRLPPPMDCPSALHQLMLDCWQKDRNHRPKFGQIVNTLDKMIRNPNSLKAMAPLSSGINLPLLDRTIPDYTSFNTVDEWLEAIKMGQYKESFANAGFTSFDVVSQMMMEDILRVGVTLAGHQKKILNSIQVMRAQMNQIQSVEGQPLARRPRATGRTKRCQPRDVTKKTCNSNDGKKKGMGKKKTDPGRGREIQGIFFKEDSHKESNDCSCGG
Sequence of MERTK (Q12866 whole entry, looked up): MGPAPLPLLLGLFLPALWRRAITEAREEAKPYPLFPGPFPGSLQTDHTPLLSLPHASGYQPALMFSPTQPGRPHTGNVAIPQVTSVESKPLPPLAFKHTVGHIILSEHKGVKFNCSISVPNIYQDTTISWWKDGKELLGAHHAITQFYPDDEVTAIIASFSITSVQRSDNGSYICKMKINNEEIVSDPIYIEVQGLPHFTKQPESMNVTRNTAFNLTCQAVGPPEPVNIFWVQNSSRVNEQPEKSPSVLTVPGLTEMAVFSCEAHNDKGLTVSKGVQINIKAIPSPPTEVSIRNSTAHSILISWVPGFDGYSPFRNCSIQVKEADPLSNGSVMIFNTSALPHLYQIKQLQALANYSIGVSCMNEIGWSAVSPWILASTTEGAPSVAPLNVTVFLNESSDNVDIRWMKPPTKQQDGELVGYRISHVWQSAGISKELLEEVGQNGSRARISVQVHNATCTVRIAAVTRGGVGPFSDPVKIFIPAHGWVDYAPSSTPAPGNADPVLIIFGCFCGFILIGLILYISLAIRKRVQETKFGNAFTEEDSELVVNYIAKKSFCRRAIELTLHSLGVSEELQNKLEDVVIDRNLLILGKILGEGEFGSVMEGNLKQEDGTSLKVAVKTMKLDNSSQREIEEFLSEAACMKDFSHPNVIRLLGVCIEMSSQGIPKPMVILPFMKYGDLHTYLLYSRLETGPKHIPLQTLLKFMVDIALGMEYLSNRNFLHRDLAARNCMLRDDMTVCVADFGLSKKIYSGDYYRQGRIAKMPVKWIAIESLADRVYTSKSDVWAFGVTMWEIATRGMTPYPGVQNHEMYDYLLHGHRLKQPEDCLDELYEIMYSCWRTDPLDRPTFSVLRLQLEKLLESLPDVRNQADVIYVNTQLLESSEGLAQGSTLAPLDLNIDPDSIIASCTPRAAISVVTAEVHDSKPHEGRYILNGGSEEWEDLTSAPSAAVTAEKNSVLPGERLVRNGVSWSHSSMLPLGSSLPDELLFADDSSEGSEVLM

SH2 binding enrichment (Grb2 SH2)	SH2 binding enrichment (SHP2-C SH2)	SH2 binding enrichment (c-Src SH2)	Sequence	phosphorylation enrichment (AncSZ)	phosphorylation enrichment (EPHB1)	phosphorylation enrichment (EPHB2)	phosphorylation enrichment (FGFR1)	phosphorylation enrichment (FGFR3)	phosphorylation enrichment (Fer (mouse))	phosphorylation enrichment (Fes)	phosphorylation enrichment (Fyn)	phosphorylation enrichment (Hck)	phosphorylation enrichment (Jak2)	phosphorylation enrichment (MERTK)	phosphorylation enrichment (c-Abl (mouse))	phosphorylation enrichment (c-Src)
0.846	0.841	1.23	KLPFLYDDPFS [GPX2_Y127_P126L_YF]	1.07	3.99	4.62	0.589	0.62	1.6	0.995	0.672	1.5	1.03	2.66	0.736	0.641
0.891	0.735	0.896	YSTDCYRVGGH [NTRK2_Y707_Y706C]	0.733	0.554	0.555	0.594	0.683	0.414	0.827	0.438	0.45	0.639	3.67	0.79	0.415
0.967	1.5	10.2	KPNMNYDKLSW [FLI1_Y332_R337W]	0.751	0.644	0.893	0.428	0.59	0.555	0.741	0.486	0.661	0.746	0.481	0.41	0.446
0.873	0.671	1.1	GLAKEYTDPET [CSNK1G2_Y195_I196T]	1.28	0.494	0.736	0.323	0.92	0.398	1.07	0.634	0.579	1.9	0.473	0.662	0.339
0.685	0.529	0.632	SSYDTYHLSRE [KIR3DL2_Y253_I252T]	0.709	0.451	0.841	0.6	0.569	0.457	0.713	6.54	4.59	0.527	0.583	0.657	3.69
1.06	0.949	0.651	NTFENYWPFFQ [GATM_Y103_K102N_YF]	1.34	9.64	5.8	12.4	10.5	0.894	1.18	3.18	5.44	3.43	5.46	1.22	4.41
0.994	0.57	0.521	VDDEIYYFRKP [PBRM1_Y1289]	2.94	0.871	0.84	6.49	5.81	1.29	1.39	8.84	8.76	1.35	4.89	7.44	6.81

Sequence	SH2 binding enrichment (Grb2 SH2)	SH2 binding enrichment (SHP2-C SH2)	SH2 binding enrichment (c-Src SH2)	phosphorylation enrichment (AncSZ)	phosphorylation enrichment (EPHB1)	phosphorylation enrichment (EPHB2)	phosphorylation enrichment (FGFR1)	phosphorylation enrichment (FGFR3)	phosphorylation enrichment (Fer (mouse))	phosphorylation enrichment (Fes)	phosphorylation enrichment (Fyn)	phosphorylation enrichment (Hck)	phosphorylation enrichment (Jak2)	phosphorylation enrichment (MERTK)	phosphorylation enrichment (c-Abl (mouse))	phosphorylation enrichment (c-Src)
GKSDPYHATSG [GJA1_Y247]	0.761	0.588	0.518	0.426	0.355	0.349	0.346	0.402	0.381	0.508	0.386	0.365	0.519	0.354	0.527	0.404
